{"source": "patent US8562986B2", "about": "“Engineered anti-alpha V-integrin hybrid antibodies” (Merck Patent GmbH, priority 2007, dated 2013)", "key": {"[1]": {"system": "bacteria", "assay": "Bacterial screening test for mutagenic potential", "type": "cell-based"}, "[2]": {"system": "CAKI-1 xenograft tumors", "assay": "CAKI-1 renal cell carcinoma xenograft, with Erbitux", "type": "in vivo, mice", "settings": "17.1 mg/kg loading then […] weekly i.p.", "description": "The renal cell carcinoma cell line CAKI-1 was grown in RPMI containing 10% FCS (heat-inactivated) plus 2 mM glutamine. 1 mM sodium pyruvate. 100 units/ml penicillin and 100 ug/ml streptomycin. Cells were passaged at confluence by washing once in cation-free PBS followed by a 3 minute incubation in trypsin (0.5 ug/ml)/EDTA (0.2 ug/ml) solution in PBS at 37° C. Cells were recovered in medium, centrifuged and taken up in medium and counted.\nThe treatment started for all groups at day 0 of experiment (same day of cell injection)."}, "[3]": {"system": "CAKI-1 renal carcinoma", "assay": "CAKI-1 renal carcinoma xenograft, monotherapy", "type": "in vivo, SCID or nude mice", "settings": "i.p. once per week"}, "[4]": {"system": "VEGF-induced migration of human endothelial cells on vitronectin", "settings": "read-out: EC50, block of VEGF-induced migration of human endothelial cells on vitronectin"}, "[5]": {"assay": "Single dose immunogenicity study in monkeys (sandwich ELISA)", "type": "in vivo, monkey", "settings": "1 mg/Kg single i.v., 1, 3 and 6 weeks", "description": "In another study the pharmacy kinetic parameters of a single dose of DI-17E6 in monkeys was assessed and in addition, this study was planned to investigate the immunogenicity of DI-17E6. […] Length of the assay was 6 weeks. Serums were drawn pre-dose, and 1, 3, and 6 weeks after administration. Levels of monkey antibodies against DI-17E6 were analyzed. In this study, immunogenicity was directly addressed using a specific sandwich ELISA method designated for this type of studies (method not validated yet)."}, "[6]": {"assay": "T-cell epitope mapping score", "set-up": "species or system human", "settings": "T-cell epitope scoring"}, "[7]": {"assay": "Serum levels and anti-antibody response in monkey Matrigel plug experiment", "type": "in vivo", "settings": "monkeys, single i.v. injection, up to end of study", "description": "Serums were collected at three different points (from the legs): immediately before antibody injection, immediately (1-2 minutes) after antibody injection, and at the end of the study before animal sacrifice. […] To detect given serum dilution) were found at the two different time points in serum: immediately after antibody administration and at the end of the study."}, "[8]": {"assay": "First clinical study in healthy volunteers, anti-drug antibodies", "type": "in vivo, human", "text": "This was meanwhile confirmed by a first clinical study carried out in the US in 2006/2007. […] In contrast to that, mouse 17E6 develops in animal models a strong immune response."}, "[9]": {"assay": "ADCC and CDC", "type": "cell-based"}, "[10]": {"system": "bFGF induced angiogenesis", "assay": "Matrigel plug model in monkeys", "type": "in vivo, Cynomologus monkeys", "settings": "6 days", "description": "Matrigel plugs containing bFGF were implanted s.c. into the abdomen of healthy Cynomologus monkeys. The animals were injected once with EMD 525797 i.v. at either 10 mg/Kg or 30 mg/Kg. Evaluation of angiogenesis was carried out 6 days after by quantification of the hemoglobin content in the Matrigel plugs."}, "[11]": {"assay": "4-weeks / repeat-dose toxicology study", "type": "in vivo, cynomolgus monkey"}, "[12]": {"system": "HUVEC", "assay": "cells", "settings": "HUVEC, 10 ng/ml FGF-2, 72 hours, single agent", "description": "The experimental design gives answer to the question whether blockade of the one lowered the IC50 of the other for blockade endothelial cell growth in the presence of tumor growth factors VEGFA and FGF2.\nPlates were coated with 100 μl VN at 1 μg/ml in PBS per 96-well at 4° C. overnight. […] When added in combination the two test substances were mixed at the starting concentrations and the mixture was serially diluted as for the single agents alone. In some assays the chemotherapeutics were serially diluted in the presence of a constant amount of the alpha V blockers at the IC50 or IC70 concentrations. Plates were incubated for 72 hours, then relative cell number was determined by the addition of 20 ul/well Alamar Blue (Resazurin).\nPoints were run in duplicate or in triplicate. Reagent blanks, containing media plus Alamar Blue without cells, were run on each plate.\nTests were routinely run using HUVEC in media containing 10 ng/ml FGF-2 or HDMVEC in media containing 10 ng/ml VEGF."}, "[13]": {"system": "platelet thrombus formation", "assay": "Thrombus formation in perfusion chamber", "type": "cell-based", "settings": "dose-dependent", "description": "To exclude possible side effects of the antibody on platelets, EMD 525797 was evaluated for inhibition of platelet aggregation in vitro with human platelet rich plasma/collagen. […] Aggregation and activation studies were carried out using Platelet Rich Plasma (PRP). Thrombus formation by perfusion chamber with exposed subendothelial matrix."}, "[14]": {"target": "αvβ3 integrin (Homo sapiens, UniProt P06756)", "sequence (P06756 31-889 limits assumed)": "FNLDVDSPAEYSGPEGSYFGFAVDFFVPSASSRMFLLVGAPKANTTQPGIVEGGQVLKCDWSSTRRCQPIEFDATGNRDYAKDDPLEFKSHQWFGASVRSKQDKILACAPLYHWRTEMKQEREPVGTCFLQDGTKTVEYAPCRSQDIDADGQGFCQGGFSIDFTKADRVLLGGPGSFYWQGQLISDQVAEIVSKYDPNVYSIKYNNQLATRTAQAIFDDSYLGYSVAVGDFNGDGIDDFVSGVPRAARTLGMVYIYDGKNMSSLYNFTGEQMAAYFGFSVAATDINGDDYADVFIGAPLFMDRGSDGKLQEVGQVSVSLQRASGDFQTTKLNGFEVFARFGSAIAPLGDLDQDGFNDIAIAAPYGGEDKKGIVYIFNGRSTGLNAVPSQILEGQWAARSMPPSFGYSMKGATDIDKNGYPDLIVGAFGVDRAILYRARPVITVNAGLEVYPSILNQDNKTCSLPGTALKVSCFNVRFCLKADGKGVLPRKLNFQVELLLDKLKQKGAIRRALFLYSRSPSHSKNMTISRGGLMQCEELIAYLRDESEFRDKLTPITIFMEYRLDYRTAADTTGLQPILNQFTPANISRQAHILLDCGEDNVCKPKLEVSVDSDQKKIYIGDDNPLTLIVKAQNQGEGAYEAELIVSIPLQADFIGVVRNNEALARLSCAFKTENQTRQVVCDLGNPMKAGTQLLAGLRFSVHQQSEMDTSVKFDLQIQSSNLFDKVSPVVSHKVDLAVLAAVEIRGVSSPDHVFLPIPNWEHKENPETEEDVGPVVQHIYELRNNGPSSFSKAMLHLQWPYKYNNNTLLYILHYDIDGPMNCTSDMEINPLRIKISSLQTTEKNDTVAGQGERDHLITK", "sequence (P06756 891-1048 partner limits assumed)": "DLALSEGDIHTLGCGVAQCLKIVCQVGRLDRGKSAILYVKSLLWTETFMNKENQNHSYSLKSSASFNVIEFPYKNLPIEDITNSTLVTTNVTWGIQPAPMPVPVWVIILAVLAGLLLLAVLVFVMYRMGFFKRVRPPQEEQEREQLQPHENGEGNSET", "sequence (P05106 27-788 partner)": "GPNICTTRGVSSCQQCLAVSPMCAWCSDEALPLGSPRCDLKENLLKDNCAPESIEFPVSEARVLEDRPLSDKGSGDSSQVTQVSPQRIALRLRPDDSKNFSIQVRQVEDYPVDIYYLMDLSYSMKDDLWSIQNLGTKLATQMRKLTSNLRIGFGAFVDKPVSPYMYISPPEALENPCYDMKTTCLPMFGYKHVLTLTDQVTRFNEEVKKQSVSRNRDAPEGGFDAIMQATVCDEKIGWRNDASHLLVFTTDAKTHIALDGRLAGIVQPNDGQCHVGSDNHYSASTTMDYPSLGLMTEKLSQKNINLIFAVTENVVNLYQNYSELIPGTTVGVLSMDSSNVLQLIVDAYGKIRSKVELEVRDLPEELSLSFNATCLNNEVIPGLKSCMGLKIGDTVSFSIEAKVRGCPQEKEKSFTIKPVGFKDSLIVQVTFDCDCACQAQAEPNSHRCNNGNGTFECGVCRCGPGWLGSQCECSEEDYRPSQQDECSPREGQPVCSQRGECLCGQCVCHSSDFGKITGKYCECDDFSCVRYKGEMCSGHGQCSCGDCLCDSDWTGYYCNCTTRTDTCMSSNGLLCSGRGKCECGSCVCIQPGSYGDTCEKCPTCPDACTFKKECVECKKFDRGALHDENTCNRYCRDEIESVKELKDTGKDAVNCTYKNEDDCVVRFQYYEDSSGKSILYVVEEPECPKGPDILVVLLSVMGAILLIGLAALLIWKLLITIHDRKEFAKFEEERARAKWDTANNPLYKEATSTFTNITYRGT", "assay": "Integrin binding ELISA", "description": "Assay to determine binding of DI17E6 antibody to alpha V integrin receptor subunit The ability of the DI17E6 antibody to bind alpha V integrin was assayed using an ELISA. Briefly, various amounts of antibody were added to wells containing alpha V integrin, wells were then washed, and the bound antibody was assayed according to standard procedures."}, "[15]": {"system": "M21-L tumors", "assay": "SCID mouse-human skin chimera model", "type": "in vivo", "settings": "1 mg/dose i.p. 3 times per week, from one day after inoculation", "text": "Human skin containing human M21 melanoma cells were grafted by implantation/transplantation onto SCID or nude mice. Experimental tumors grew in this tissue after intradermal inoculation of tumor cells and the initial angiogenic vasculature was derived from vessels in the human skin. In the next experiment, the use of M21-L cells that have no av-integrins means that only those integrins expressed on the endothelial cells within the grafted human skin were targeted."}, "[16]": {"system": "human melanoma cell lines m21, SKMEL-23, SKMEI, MeWo, WM-793", "settings": "cisplatin, paclitaxel, vinblastin, vincristin, temoyolomide"}, "[17]": {"system": "human endothelial cell adhesion to vitronectin", "assay": "Endothelial cell adhesion to vitronectin", "type": "cell-based", "settings": "read-out: EC50, inhibition of human endothelial cell adhesion to vitronectin"}, "[18]": {"system": "αv-integrins", "assay": "Species specificity (immuno precipitation, western blotting)", "type": "binding, human and monkey", "description": "The molecular basis for this unusual profile has been unequivocally established by epitope mapping, sequence comparison, and x-ray co-crystallography. The epitope recognized by DI-17E6 is confirmed as unique to human and monkey by immuno precipitation and western blotting analysis performed with several species."}}, "note": "“Also recorded” adds a separate entry of the source. Like-named read-outs stand apart in the source and are kept apart here."}
{"substance": "DI-17E6: engineered de-immunized anti-αv integrin antibody: 17E6 CDRs, h425 light chain frameworks, human IgG2 with modified IgG1 hinge, N297Q, F296A", "values": [{"measurement": "mutagenic potential", "setting": "[1]", "result": "not mutagenic"}, {"measurement": "T/C at day 40, end of treatment", "setting": "[2]", "result": 25, "unit": "%"}, {"measurement": "serum trough values", "setting": "[2]; mice", "result": 100, "unit": "µg/mL"}, {"measurement": "tumor volume", "setting": "[3]; high dose (500 ug/ml)", "result": "complete reduction of tumor volume"}, {"measurement": "tumor volume/size", "setting": "[3]; low (1 ug/ml) to medium (100 ug/ml serum) doses", "result": "can reduce tumor volume/size"}, {"measurement": "EC50", "setting": "[4]", "result": "~50", "unit": "nM"}, {"measurement": "monkey antibodies against the antibody", "setting": "[5]", "result": "no monkey antibodies against DI-17E6 could be detected"}, {"measurement": "Total score, heavy chain", "setting": "[6]; heavy chain", "result": 85}, {"measurement": "Total score, light chain", "setting": "[6]; light chain", "result": 92}, {"measurement": "serum levels of antibody", "setting": "[7]", "result": "high serum levels at each time-point"}, {"measurement": "anti-drug antibodies in volunteers", "setting": "[8]; group of 250 mg, 6 volunteers", "result": "one volunteer developed anti-drug antibodies"}, {"measurement": "anti-drug antibodies in volunteers", "setting": "[8]; higher dose groups (500 mg and more)", "result": "no volunteer developed any immune response; also recorded: not detected"}, {"measurement": "ADCC and CDC", "setting": "[9]", "result": "neither antibody dependent cell cytotoxicity (ADCC) nor complement dependent cytotoxicity (CDC)"}, {"measurement": "new blood vessel formation (hemoglobin content of plugs)", "setting": "[10]; 10 mg/Kg i.v. once", "result": "inactive"}, {"measurement": "new blood vessel formation (hemoglobin content of plugs)", "setting": "[10]; 30 mg/Kg i.v. once", "result": "highly efficacious"}, {"measurement": "tolerability", "setting": "[11]; 10, 33 and 100 mg/kg once weekly for 4 weeks, intravenous infusion (1 h)", "result": "well tolerated"}, {"measurement": "treatment-related effects in 4-weeks toxicology study", "setting": "[11]; clinical observations, body weight, ECG, clinical pathology, organ weight, histopathology", "result": "did not reveal any treatment-related effects"}, {"measurement": "safety pharmacology alerts", "setting": "[11]; repeat-dose-toxicity studies in cynomolgus monkey", "result": "No safety pharmacology alerts"}, {"measurement": "IC50", "setting": "[12]", "result": 4, "unit": "ng/mL"}, {"measurement": "platelet thrombus formation in the perfusion chamber", "setting": "[13]", "result": "blocks"}, {"measurement": "binding to αvβ3 integrin (in words)", "setting": "[14]", "result": "similar"}, {"measurement": "binding to αvβ3 integrin (in words)", "setting": "[14]; listed as DI-17E6-g2h(NtoQ)(C60Y)", "result": "retains binding affinity"}, {"measurement": "growth of M21-L tumors", "setting": "[15]", "result": "inhibited growth"}, {"measurement": "effect on the chemotherapeutic agent", "setting": "[16]", "result": "not more than additive affects"}, {"measurement": "EC50", "setting": "[17]", "result": "~10", "unit": "nM"}, {"measurement": "species specificity", "setting": "[18]", "result": "human and monkey αv-integrins only"}]}
